Values quoted from earlier work as cited in publication PMC4729772 (Theranostics, 2016).

Albiglutide: glucagon-like peptide-1 dimer fused to human albumin
half-life: four to seven
